# Experimental data reported in paper doi:10.1101/2020.04.14.040436.
# Legend:
# [1] = biological target: 14-3-3ε/γ heterodimer (His6-tagged 14-3-3ε with untagged 14-3-3γ) (human) (UniProt P62258); experiment: SPR
# [2] = biological target: His6-tagged 14-3-3ε (human) (UniProt P62258); experiment: SPR
# [3] = biological target: human 14-3-3ε devoid of the C-terminal flexible tail (14-3-3εΔC) (human); experiment: SEC
# Chain of human 14-3-3ε devoid of the C-terminal flexible tail (14-3-3εΔC) (human) (B3KY71 whole entry, stated change not applied): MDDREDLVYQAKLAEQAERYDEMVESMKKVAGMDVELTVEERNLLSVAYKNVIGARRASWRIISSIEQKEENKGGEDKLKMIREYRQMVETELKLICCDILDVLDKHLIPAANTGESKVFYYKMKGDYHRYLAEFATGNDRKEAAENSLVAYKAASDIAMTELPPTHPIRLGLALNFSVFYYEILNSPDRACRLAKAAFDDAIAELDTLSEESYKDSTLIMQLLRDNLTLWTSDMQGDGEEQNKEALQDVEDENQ
binder,measurement,setting,value
"STARD1_(46-285)-S56A/L59P phosphorylated at Ser57 and Ser195 (domain or fragment, phosphoserine at 57; phosphoserine at 195) STWINQVRRRASLPGSRLEETLYSDQELAYLQQGEEAMQKALGILSNQEGWKKESQQDNGDKVMSKVVPDVGKVFRLEVVVDQPMERLYEELVERMEAMGEWNPNVKEIKVLQKIGKDTFITHELAAEAAGNLVGPRDFVSVRCAKRRGSTCVLAGMATDFGNMPEQKGVIRAEHGPTCMVLHPLAGSPSKTKLTWLLSIDLKGWLPKSIINQVLSQTQVDFANHLRKRLESHPASEARC",Kd,[1],15 µM
same,Kd,[2],13 µM
same,stoichiometry N (STARD1 per 14-3-3 subunit (2:2)),[3],1
same,stoichiometry N,[3]; scale: STARD1 per 14-3-3 subunit,0.5
